The text below walks through data of publication PMC2942843.

The target of this series is T1, CbbR (His6-CbbR) (Acidithiobacillus ferrooxidans ATCC 23270) (UniProt B7JB31).
T1 sequence: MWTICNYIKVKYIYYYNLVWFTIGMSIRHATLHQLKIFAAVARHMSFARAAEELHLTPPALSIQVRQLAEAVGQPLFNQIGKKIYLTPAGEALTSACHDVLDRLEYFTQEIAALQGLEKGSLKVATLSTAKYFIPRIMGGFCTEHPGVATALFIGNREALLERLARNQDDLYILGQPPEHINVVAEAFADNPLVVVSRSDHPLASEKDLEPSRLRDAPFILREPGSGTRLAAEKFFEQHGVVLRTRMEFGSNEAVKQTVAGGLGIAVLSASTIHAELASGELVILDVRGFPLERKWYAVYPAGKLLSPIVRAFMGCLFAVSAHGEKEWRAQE
Put plainly: EMSA. The note with it: 12 mM HEPES-NaOH pH 7.9, 4 mM Tris-HCl pH 7.9, 1 mM EDTA, 60 mM KCl, 1 mM DTT, 10% glycerol, 5 ug/ul BSA, 2 ug/ul poly(dI-dC), 30 C, 15 min, 20 pmol DNA. A general note: In EMSA bound probe runs differently from free probe, usually more slowly.
On to “TTTGGGGTGGCAGCAAGAAGTCCTCCTTTCCGGTAGTTGGCCCGGCGCGCTCTTGAGGCCGCACATCCGCCCCGCTTGAGCCAATTTTGCCTTTGCGGTGAGCGGGTTTCACTTCGCTTGTGGCGCTTTCCTTTGATATAGTGCGCGCTGTCCCTGTCGCGCTGCGACAGGTCGGCCTAGCTATTGAGGAGCCCAGTGCATGTCCAAAAGTCATCTTTTCACCTCTGAATCCGTTTCC (double strand) [Pcbb4 (cbb4 operon promoter region)]”, for which the binding result is “no binding”.
With “CGGCAGCGAAGATCTTGAGTTGGTGCAAGGTTGCATGACGGATAGACATGCCAATAGTAAACCATACTAAATTATAATAGTAAATATATTTTACTTTTATATAGTTACAGATCGTCCACAATGCTACCCAAGCATTGGAACCTGGCAGGTGGCTCCAATCACCATCGTCTACCATGACACAAGGAGAGCAAGCATGGCCGTAAAAAAGTATGAGGCCGGAG (double strand) [Pcbb1 (cbb1 operon promoter region)]” the entry was “binds”; with “ACGACGGCGGCAAGCACCGCCAACCACCGAACATCAGACGCGTAGTCACAAACCACCATCACATCAGTGATACGTTATTGAAAAAATAATAACTACTTATTAGCGCTTATGATTCACCCGCACTATAGTTCGATCATCGCTGCAGACGCAGCGATTGCGCCGGGGGCACCGGCGTCGGGCAACTGCATGGAGGTGGCATATGGCCGTCAAGACCTATAACGCGGGTGTGAAGGATTACCGG (double strand) [Pcbb2 (cbb2 operon promoter region)]”, “binds”.
Next, “CATTGAACAGGGTCAGCTCCTGGCCATGGCGGGCGCGCAACACCTTGAGCAGATGATGGCTGGCACCTGCCGGCAGCAAAAAGGGGCCGCTTTCGGGCAGGTCGGAATCGGCGTATAAGTGAATGCGCGGCATAGGTTACGATATCGGGCAGGAGAACACAGGTGGGATTATATCATCGTGGCGCTGGCGCAGGTGGCGCATGATCAAAGACTCCGAT (double strand) [Pcbb3 (cbb3 operon promoter region)]”: “binds”.
